This note sets out measurements from article PMC7987009 (bioRxiv, 2021).

Assay [1] deals with SARS-CoV-2 spike HexaPro (S), prefusion-stabilized trimer (SARS-CoV-2, Wuhan-Hu-1, HexaPro design, stabilised). As to the kind of experiment: cell-based or functional assay.
Assay [2] has as its target SARS-CoV-2 spike receptor-binding domain (RBD), wild type (SARS-CoV-2, Wuhan-Hu-1 (wild type), UniProt P0DTC2). As to the kind of experiment: ELISA. On the technique in general: An ELISA detects its analyte on a solid surface through an enzyme-linked reagent.

B1: Nb17 (VHH)
VHH: HVQLVESGGGLVQAGGSLRLSCAASGSIFSSNAMSWYRQAPGKQRELVASITSGGNADYADSVKGRFTISRDKNTVYPEMSSLKPADTAVYYCHAVGQEASAYAPRAYWGQGTQVTVSS
Turning to B1, in assay [1], the “IC50 of neutralisation of the virus in vitro” value was approximately 0.025 µg/mL.

B2: Nb105 (VHH)
VHH: HVQLVESGGGLVQAGGSLRLSCAVSGRTFSTYGMAWFRQAPGKERDFVATITRSGETTLYADSVKGRFTISRDNAKNTVYLQMNSLKIEDTAVYYCAVRRDSSWGYSRDLFEYDYWGQGTQVTVSS
Regarding B2, the binding result in assay [2] is on record as “binds”.

B3: Nb34 (VHH)
VHH: DVQLVESGGGLVQAGGSLRLSCAASGFTFSNYVMYWGRQAPGKGREWVSGIDSDGSDTAYASSVKGRFTISRDNAKNTLYLQMNNLKPEDTALYYCVKSKDPYGSPWTRSEFDDYWGQGTQVTVSS
B3: the binding result in assay [2] was “binds”.

B4: Nb20 (VHH)
VHH: QVQLVESGGGLVQAGGSLRLSCAVSGAGAHRVGWFRRAPGKEREFVAAIGASGGMTNYLDSVKGRFTISRDNAKNTIYLQMNSLKPQDTAVYYCAARDIETAEYIYWGQGTQVTVSS
B4: the binding result in assay [2] is “binds”.
